Non-standard residues stand in square brackets, D forms with d. No end group written: not given here. *: point of attachment. Desaminotyrosyl = O=C(CCc1ccc(O)cc1)*; NMeY = CN[C@@H](Cc1ccc(O)cc1)C(=O)O; Nle = CCCC[C@H](N)C(=O)O; Orn = NCCC[C@H](N)C(=O)O; dAbu = CC[C@@H](N)C(=O)O; Abu = CC[C@H](N)C(=O)O; Aoc = NCCCCCCCC(=O)O; Ava = NCCCCC(=O)O; GABA = NCCCC(=O)O

Experiment [1] addresses T1, GHRH receptor (membrane receptors of human anterior pituitary cells) (human) (UniProt Q02643).
T1 sequence (looked up): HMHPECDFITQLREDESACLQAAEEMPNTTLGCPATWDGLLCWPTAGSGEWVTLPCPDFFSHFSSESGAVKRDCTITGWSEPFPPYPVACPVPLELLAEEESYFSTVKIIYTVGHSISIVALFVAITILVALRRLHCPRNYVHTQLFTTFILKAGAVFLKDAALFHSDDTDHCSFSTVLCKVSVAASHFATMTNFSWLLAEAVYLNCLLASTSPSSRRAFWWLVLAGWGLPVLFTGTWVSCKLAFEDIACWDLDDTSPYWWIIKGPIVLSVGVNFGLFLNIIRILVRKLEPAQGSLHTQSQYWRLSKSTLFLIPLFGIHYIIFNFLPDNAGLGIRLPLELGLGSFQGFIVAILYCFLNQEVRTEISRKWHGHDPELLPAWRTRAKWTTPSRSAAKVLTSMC
Put plainly: competition with 125I-JV-1-42, human pituitary membranes.

Experiment [2] has as its target T1, GHRH receptor (membrane receptors of human anterior pituitary cells) (human). Nature of the experiment: competition with 125I-[His1,Nle27]hGHRH(1-32)NH2, human pituitary membranes.
For experiment [3], the target named is T2, GHRH receptor (membrane receptors of human anterior pituitary cells) (human, UniProt Q02643 23-423).
T2 construct: whole, on cells; Native receptor in a membrane fraction of purchased normal human pituitaries, not intact cells; also called hGHRH receptor; human pituitary membrane homogenates
T2 sequence (looked up): T1 sequence (looked up)
Put plainly: competition with 125I-JV-1-42, human pituitary membranes. An excerpt: Normal human pituitaries were purchased from the National Hormone and Peptide Program (A. F. Parlow, Los Angeles, County Harbor-UCLA Medical Center, Torrance, Calif.).

Experiment [4] deals with T2, GHRH receptor (membrane receptors of …). Put plainly: competition with 125I-[His1,Nle27]hGHRH(1-32)NH2, human pituitary membranes.

A word on the IC50: it is the concentration needed to halve the response being measured. A higher IC50 goes with weaker potency in that assay. In experiment [1], “P-27404 [N-Me-Tyr^1, D-Ala^2, Fpa5^6, Orn^12, Abu^15, Orn^21, Nle^27, Asp^28]hGHRH(1-29)NH-CH3 (peptide)” came in with an IC50 of 0.87 nM and a Relative affinity (Binding potency) vs JI-38 of 5 JI-38 = 1. In experiment [2], this molecule had an IC50 of 1.12 nM, a Relative affinity (Binding potency) compared to JI-38 of 2.45 JI-38 = 1 and a Relative affinity (Binding potency) compared to hGHRH(1-29) (hGHRH(1-29)NH2 = 1) of 6.83.

B1: P-22325 [N-Me-Tyr^1, Gln^8, Orn^12, Abu^15, Orn^21, Nle^27, Asp^28, Apa^30]hGHRH(1-30)NH2 (peptide, from a related filing)
peptide: [NMeY]ADAIFTQSYR[Orn]VL[Abu]QLSAR[Orn]LLQDI[Nle]DR[Ava]-NH2
modifications: N-terminus assumed
SMILES: CCCC[C@H](NC(=O)[C@@H](NC(=O)[C@H](CC(=O)O)NC(=O)[C@H](CCC(N)=O)NC(=O)[C@H](CC(C)C)NC(=O)[C@H](CC(C)C)NC(=O)[C@H](CCCN)NC(=O)[C@H](CCCNC(=N)N)NC(=O)[C@H](C)NC(=O)[C@H](CO)NC(=O)[C@H](CC(C)C)NC(=O)[C@H](CCC(N)=O)NC(=O)[C@H](CC)NC(=O)[C@H](CC(C)C)NC(=O)[C@@H](NC(=O)[C@H](CCCN)NC(=O)[C@H](CCCNC(=N)N)NC(=O)[C@H](Cc1ccc(O)cc1)NC(=O)[C@H](CO)NC(=O)[C@H](CCC(N)=O)NC(=O)[C@@H](NC(=O)[C@H](Cc1ccccc1)NC(=O)[C@@H](NC(=O)[C@H](C)NC(=O)[C@H](CC(=O)O)NC(=O)[C@H](C)NC(=O)[C@H](Cc1ccc(O)cc1)NC)[C@@H](C)CC)[C@@H](C)O)C(C)C)[C@@H](C)CC)C(=O)N[C@@H](CC(=O)O)C(=O)N[C@@H](CCCNC(=N)N)C(=O)NCCCCC(N)=O
As to B1, in experiment [1], the half-inhibitory concentration (IC50) is 3.8 nM and the Relative affinity (Binding potency) vs JI-38 was 1.14 JI-38 = 1.

B2: P-21301 [N-Me-Tyr^1, Orn^12, Abu^15, Orn^21, Nle^27, Asp^28, Amc^30]hGHRH(1-30)NH2 (peptide, from a related filing)
peptide: [NMeY]ADAIFTNSYR[Orn]VL[Abu]QLSAR[Orn]LLQDI[Nle]DR[Aoc]-NH2
modifications: N-terminus assumed
SMILES: CCCC[C@H](NC(=O)[C@@H](NC(=O)[C@H](CC(=O)O)NC(=O)[C@H](CCC(N)=O)NC(=O)[C@H](CC(C)C)NC(=O)[C@H](CC(C)C)NC(=O)[C@H](CCCN)NC(=O)[C@H](CCCNC(=N)N)NC(=O)[C@H](C)NC(=O)[C@H](CO)NC(=O)[C@H](CC(C)C)NC(=O)[C@H](CCC(N)=O)NC(=O)[C@H](CC)NC(=O)[C@H](CC(C)C)NC(=O)[C@@H](NC(=O)[C@H](CCCN)NC(=O)[C@H](CCCNC(=N)N)NC(=O)[C@H](Cc1ccc(O)cc1)NC(=O)[C@H](CO)NC(=O)[C@H](CC(N)=O)NC(=O)[C@@H](NC(=O)[C@H](Cc1ccccc1)NC(=O)[C@@H](NC(=O)[C@H](C)NC(=O)[C@H](CC(=O)O)NC(=O)[C@H](C)NC(=O)[C@H](Cc1ccc(O)cc1)NC)[C@@H](C)CC)[C@@H](C)O)C(C)C)[C@@H](C)CC)C(=O)N[C@@H](CC(=O)O)C(=O)N[C@@H](CCCNC(=N)N)C(=O)NCCCCCCCC(N)=O
In experiment [1], B2 yielded a 50% inhibitory concentration (IC50) of 2.99 nM and a Relative affinity (Binding potency) vs JI-38 of 1.45 JI-38 = 1.

B3: P-27415 [N-Me-Tyr^1, Orn^12, Abu^15, Orn^21, Nle^27, Gab^30]hGHRH(1-30)NH-CH3 (peptide, from a related filing)
peptide: YADAIFTNSYRKVLGQLSARKLLQDIMSRQ
modifications: N-Me-Tyr^1; Orn^12; Abu^15; Orn^21; Nle^27; Gab^30 (in place of Gln^30); C-terminal -NH-CH3
In the case of B3, in experiment [1], the half-inhibitory concentration (IC50) turned out to be 3.02 nM and the Relative affinity (Binding potency) vs JI-38 is 1.44 JI-38 = 1.

B4: P-25504 [Dat^1, D-Abu^2, Orn^12, Abu^15, Orn^21, Nle^27, Gab^30]hGHRH(1-30)NH2 (peptide)
peptide: [Desaminotyrosyl][dAbu]DAIFTNSYR[Orn]VL[Abu]QLSAR[Orn]LLQDI[Nle]SR[GABA]-NH2
SMILES: CCCC[C@H](NC(=O)[C@@H](NC(=O)[C@H](CC(=O)O)NC(=O)[C@H](CCC(N)=O)NC(=O)[C@H](CC(C)C)NC(=O)[C@H](CC(C)C)NC(=O)[C@H](CCCN)NC(=O)[C@H](CCCNC(=N)N)NC(=O)[C@H](C)NC(=O)[C@H](CO)NC(=O)[C@H](CC(C)C)NC(=O)[C@H](CCC(N)=O)NC(=O)[C@H](CC)NC(=O)[C@H](CC(C)C)NC(=O)[C@@H](NC(=O)[C@H](CCCN)NC(=O)[C@H](CCCNC(=N)N)NC(=O)[C@H](Cc1ccc(O)cc1)NC(=O)[C@H](CO)NC(=O)[C@H](CC(N)=O)NC(=O)[C@@H](NC(=O)[C@H](Cc1ccccc1)NC(=O)[C@@H](NC(=O)[C@H](C)NC(=O)[C@H](CC(=O)O)NC(=O)[C@@H](CC)NC(=O)CCc1ccc(O)cc1)[C@@H](C)CC)[C@@H](C)O)C(C)C)[C@@H](C)CC)C(=O)N[C@@H](CO)C(=O)N[C@@H](CCCNC(=N)N)C(=O)NCCCC(N)=O
notes: also called MR-504; Peptide 25504
As for B4, in experiment [3], the IC50 was 1.44 nM and the “Relative affinity (Binding potency) vs JI-38” value amounted to 3.02 JI-38 = 1. In experiment [4], the half-maximal inhibitory concentration (IC50) was determined as 2.85 nM, the “Relative affinity (Binding potency) compared to JI-38” value came to 0.96 JI-38 = 1 and the “Relative affinity (Binding potency) compared to hGHRH(1-29)” value is 2.68 hGHRH(1-29)NH2 = 1.

Regarding [NMeY]ADAIFTQSYR[Orn]VL[Abu]QLSAR[Orn]LLQDI[Nle]DR-NHMe (peptide, from a related filing) [P-27406 [N-Me-Tyr^1, Gln^8, Orn^12, Abu^15, Orn^21, Nle^27, Asp^28]hGHRH(1-29)NH-CH3], in experiment [1], the IC50 came out at 0.3 nM and the Relative affinity (Binding potency) vs JI-38 is 14.5 JI-38 = 1. Also, in experiment [2], the IC50 came to 0.93 nM, the Relative affinity (Binding potency) compared to JI-38 worked out at 2.95 JI-38 = 1 and the Relative affinity (Binding potency) compared to hGHRH(1-29) (hGHRH(1-29)NH2 = 1) turned out to be 8.22.

B5: P-25503 [N-Me-Tyr^1, Abu^2, Orn^12, Abu^15, Orn^21, Nle^27, Gab^30]hGHRH(1-30)NH2 (peptide, from a related filing)
peptide: B3 peptide
modifications: N-Me-Tyr^1; Abu^2; Orn^12; Abu^15; Orn^21; Nle^27; Gab^30 (in place of Gln^30); C-terminal -NH2
In experiment [1], B5 registered an IC50 of 1.18 nM and a Relative affinity (Binding potency) vs JI-38 of 3.67 JI-38 = 1.

In experiment [1], [NMeY]ADAIFTQSYR[Orn]VL[Abu]QLSAR[Orn]LLQDI[Nle]SR-NHMe (peptide, from a related filing) [P-27405 [N-Me-Tyr^1, Gln^8, Orn^12, Abu^15, Orn^21, Nle^27]hGHRH(1-29)NH-CH3] displayed a concentration for half-maximal inhibition (IC50) of 1.08 nM and a Relative affinity (Binding potency) vs JI-38 of 4.03 JI-38 = 1. Moreover, in experiment [2], the IC50 amounted to 2.51 nM, the Relative affinity (Binding potency) compared to JI-38 came out at 1.09 JI-38 = 1 and the Relative affinity (Binding potency) compared to hGHRH(1-29) (hGHRH(1-29)NH2 = 1) turned out to be 3.04.

B6: P-27413 [Dat^1, Gln^8, His^11, Orn^12, Abu^15, His^20, Orn^21, Nle^27, Asp^28]hGHRH(1-29)NH-CH3 (peptide, from a related filing)
peptide: [Desaminotyrosyl]ADAIFTQSYH[Orn]VL[Abu]QLSAH[Orn]LLQDI[Nle]DR-NHMe
SMILES: CCCC[C@H](NC(=O)[C@@H](NC(=O)[C@H](CC(=O)O)NC(=O)[C@H](CCC(N)=O)NC(=O)[C@H](CC(C)C)NC(=O)[C@H](CC(C)C)NC(=O)[C@H](CCCN)NC(=O)[C@H](Cc1c[nH]cn1)NC(=O)[C@H](C)NC(=O)[C@H](CO)NC(=O)[C@H](CC(C)C)NC(=O)[C@H](CCC(N)=O)NC(=O)[C@H](CC)NC(=O)[C@H](CC(C)C)NC(=O)[C@@H](NC(=O)[C@H](CCCN)NC(=O)[C@H](Cc1c[nH]cn1)NC(=O)[C@H](Cc1ccc(O)cc1)NC(=O)[C@H](CO)NC(=O)[C@H](CCC(N)=O)NC(=O)[C@@H](NC(=O)[C@H](Cc1ccccc1)NC(=O)[C@@H](NC(=O)[C@H](C)NC(=O)[C@H](CC(=O)O)NC(=O)[C@H](C)NC(=O)CCc1ccc(O)cc1)[C@@H](C)CC)[C@@H](C)O)C(C)C)[C@@H](C)CC)C(=O)N[C@@H](CC(=O)O)C(=O)N[C@@H](CCCNC(=N)N)C(=O)NC
On to B6, for which, in experiment [1], the concentration for half-maximal inhibition (IC50) is 2.45 nM and the Relative affinity (Binding potency) vs JI-38 was 1.78 JI-38 = 1.

B7: P-27407 [Dat^1, Gln^8, Orn^12, Abu^15, Orn^21, Nle^27, Asp^28]hGHRH(1-29)NH-CH3 (peptide, from a related filing)
peptide: [Desaminotyrosyl]ADAIFTQSYR[Orn]VL[Abu]QLSAR[Orn]LLQDI[Nle]DR-NHMe
SMILES: CCCC[C@H](NC(=O)[C@@H](NC(=O)[C@H](CC(=O)O)NC(=O)[C@H](CCC(N)=O)NC(=O)[C@H](CC(C)C)NC(=O)[C@H](CC(C)C)NC(=O)[C@H](CCCN)NC(=O)[C@H](CCCNC(=N)N)NC(=O)[C@H](C)NC(=O)[C@H](CO)NC(=O)[C@H](CC(C)C)NC(=O)[C@H](CCC(N)=O)NC(=O)[C@H](CC)NC(=O)[C@H](CC(C)C)NC(=O)[C@@H](NC(=O)[C@H](CCCN)NC(=O)[C@H](CCCNC(=N)N)NC(=O)[C@H](Cc1ccc(O)cc1)NC(=O)[C@H](CO)NC(=O)[C@H](CCC(N)=O)NC(=O)[C@@H](NC(=O)[C@H](Cc1ccccc1)NC(=O)[C@@H](NC(=O)[C@H](C)NC(=O)[C@H](CC(=O)O)NC(=O)[C@H](C)NC(=O)CCc1ccc(O)cc1)[C@@H](C)CC)[C@@H](C)O)C(C)C)[C@@H](C)CC)C(=O)N[C@@H](CC(=O)O)C(=O)N[C@@H](CCCNC(=N)N)C(=O)NC
In experiment [1], B7 yielded a half-inhibitory concentration (IC50) of 3 nM and a Relative affinity (Binding potency) vs JI-38 of 1.45 JI-38 = 1. Also, in experiment [2], the IC50 came to 5.01 nM, the Relative affinity (Binding potency) compared to JI-38 is 0.54 JI-38 = 1 and the Relative affinity (Binding potency) compared to hGHRH(1-29) (hGHRH(1-29)NH2 = 1) was determined as 1.52.

These data come from US20140179604A1 (U S A REPRESENTED BY THE DEPARTMENT OF VETERANS AFFAIRS, published 2014).
